Assay results as given in US20240124560A1.

Tests used:
Experiment in all cases: cell-based or functional assay
[1] = biological target: HIV-1 Env of NIH-101_6540.v4.c1 (HIV-1)
[2] = biological target: HIV-1 Env of NIH-061_Q259ENVd2.17 (HIV-1)
[3] = biological target: HIV-1 Env of NIH-081_BJOX028000.10.3 (HIV-1)
[4] = biological target: HIV-1 Env of pseudovirus NAC_BG505 (HIV-1)
[5] = biological target: HIV-1 Env of NIH-046_1394C9G1(Rev.) (HIV-1)
[6] = biological target: HIV-1 Env of NIH-074_C4118.c09 (HIV-1)
[7] = biological target: HIV-1 Env of pseudovirus NAC_93IN905 (HIV-1)
[8] = biological target: HIV-1 Env of pseudovirus NIH-013_6240.08.TA5.4622 (HIV-1)
[9] = biological target: HIV-1 Env of pseudovirus NIH-091_231965.c01 (clade D) (HIV-1)
[10] = biological target: HIV-1 Env of pseudovirus NIH-030_HIV-0013095.2.11 (HIV-1)
[11] = biological target: HIV-1 Env of pseudovirus NIH-023_ZM249M.PL1 (HIV-1)
[12] = biological target: HIV-1 Env of NIH-054_CNE53 (HIV-1)
[13] = biological target: HIV-1 Env of pseudovirus NIH-078_BJOX015000.11.5 (HIV-1)
[14] = biological target: HIV-1 Env of NHI-028_CAP210.E8 (HIV-1)
[15] = biological target: HIV-1 Env of NIH-070_R2184.c04 (HIV-1)
[16] = biological target: HIV-1 Env of pseudovirus NIH-090_A07412M1.vrc12 (clade D) (HIV-1)
[17] = biological target: HIV-1 Env of pseudovirus NIH-115_928.28 (HIV-1)
[18] = biological target: HIV-1 Env of pseudovirus NIH-020_ZM197M.PB7 (HIV-1)
[19] = biological target: HIV-1 Env of isolate NIH-091_231965.c01 (HIV-1)
[20] = biological target: HIV-1 Env of NIH-073_C3347.c11 (HIV-1)
[21] = biological target: HIV-1 Env of NIH-013_6240.08.TA5.4622 (HIV-1)
[22] = biological target: HIV-1 Env of NIH-008_WEAU.d15.410.787 (HIV-1)
[23] = biological target: HIV-1 Env of pseudovirus NIH-081_BJOX028000.10.3 (HIV-1)
[24] = biological target: HIV-1 Env of pseudovirus NIH-116_T263.8 (HIV-1)
[25] = biological target: HIV-1 Env of pseudovirus NIH-071_R1166.c01 (HIV-1)
[26] = biological target: HIV-1 Env of pseudovirus NIH-107_T251.18 (HIV-1)
[27] = biological target: HIV-1 Env of isolate NIH-087_P1981 C5 3 (HIV-1)
[28] = biological target: HIV-1 Env of pseudovirus NIH-114_T257.31 (HIV-1)
[29] = biological target: HIV-1 Env of pseudovirus NIH-088_X1632 S2 B10 (clade G) (HIV-1)
[30] = biological target: HIV-1 Env of isolate NIH-086_X2131 C1 B5 (HIV-1)
[31] = biological target: HIV-1 Env of NIH-059_Q461ENVe2 (HIV-1)
[32] = biological target: HIV-1 Env of NIH-041_BF1266.431a (HIV-1)
[33] = biological target: HIV-1 Env of pseudovirus NIH-032_HIV-16845.2.22 (HIV-1)
[34] = biological target: HIV-1 Env of pseudovirus NIH-069_C1080.c03 (HIV-1)
[35] = biological target: HIV-1 Env of pseudovirus NAC_BaL.26 (HIV-1)
[36] = biological target: HIV-1 Env of NAC_BaL.26 (HIV-1)
[37] = biological target: HIV-1 Env of pseudovirus NIH-102_6545.v4.c1 (HIV-1)
[38] = biological target: HIV-1 Env of NIH-119_T211.9 (HIV-1)
[39] = biological target: HIV-1 Env of pseudovirus NIH-070_R2184.c04 (HIV-1)
[40] = biological target: HIV-1 Env of NIH-022_ZM233M.PB6 (HIV-1)
[41] = biological target: HIV-1 Env of pseudovirus NIH-042_ZM246F.D5 (HIV-1)
[42] = biological target: HIV-1 Env of pseudovirus NIH-119_T211.9 (HIV-1)
[43] = biological target: HIV-1 Env of pseudovirus NIH-021_ZM214M.PL15 (HIV-1)
[44] = biological target: HIV-1 Env of pseudovirus NIH-017_Du156.12 (HIV-1)
[45] = biological target: HIV-1 Env of NAC_BG505 (HIV-1)

4E10 (antibody) showed an IC80 neutralization [1] of 36.1 µg/mL, an IC80 neutralization [2] of 28.9 µg/mL and an IC80 neutralization [3] of 1.88 µg/mL. For the same substance, the neutralization IC50 [4] was 1.15 µg/mL, the IC80 neutralization [5] was 10.4 µg/mL and the IC80 neutralization [6] was 1.17 µg/mL. It also gave a neutralization IC50 [7] of 0.11 µg/mL, a neutralization IC50 [8] of 9.78 µg/mL and an IC50 (µg/ml), TZM-bl cell neutralization assay, pseudovirus [9] of 13.8 µg/mL. The neutralization IC50 [10] was 0.001 µg/mL, the neutralization IC50 [11] was 1.44 µg/mL and the IC80 neutralization [12] was 1.52 µg/mL. The neutralization IC50 [13] was 0.165 µg/mL, the IC80 neutralization [14] was 3.53 µg/mL and the IC80 neutralization [15] was 0.762 µg/mL. For the same substance, the IC50 (µg/ml), TZM-bl cell neutralization assay, pseudovirus [16] was 2.58 µg/mL, the neutralization IC50 [17] was 0.112 µg/mL and the neutralization IC50 [18] was 0.226 µg/mL. For the same substance, the IC80 (µg/ml), TZM-bl pseudovirus neutralization [19] was > 50 µg/mL, the IC80 neutralization [20] was 0.137 µg/mL and the IC80 neutralization [21] was 40.3 µg/mL. For the same substance, the IC80 neutralization [22] was 2.59 µg/mL, the neutralization IC50 [23] was 0.45 µg/mL and the neutralization IC50 [24] was 0.206 µg/mL. It also gave a neutralization IC50 [25] of 0.383 µg/mL, a neutralization IC50 [26] of 0.905 µg/mL and an IC80 (µg/ml), TZM-bl pseudovirus neutralization [27] of 0.406 µg/mL. For the same substance, the neutralization IC50 [28] was 1.03 µg/mL, the IC50 (µg/ml), TZM-bl cell neutralization assay, pseudovirus [29] was 2.57 µg/mL and the IC80 (µg/ml), TZM-bl pseudovirus neutralization [30] was 0.765 µg/mL. The IC80 neutralization [31] was 9.31 µg/mL, the IC80 neutralization [32] was 10 µg/mL and the neutralization IC50 [33] was 0.097 µg/mL. The neutralization IC50 [34] was 0.328 µg/mL, the neutralization IC50 [35] was 4.2 µg/mL and the IC80 neutralization [36] was 17.1 µg/mL. It also gave a neutralization IC50 [37] of 2.35 µg/mL, an IC80 neutralization [38] of 5.08 µg/mL and a neutralization IC50 [39] of 0.223 µg/mL. For the same substance, the IC80 neutralization [40] was 4.99 µg/mL, the neutralization IC50 [41] was 1.68 µg/mL and the neutralization IC50 [42] was 1.2 µg/mL. For the same substance, the neutralization IC50 [43] was 5.31 µg/mL, the neutralization IC50 [44] was 0.101 µg/mL and the IC80 neutralization [45] was 4.88 µg/mL.
PGZL1 (antibody) was tested, and the IC80 neutralization [1] was > 50 µg/mL, the IC80 neutralization [2] was > 50 µg/mL and the IC80 neutralization [3] was 20.9 µg/mL. For the same substance, the neutralization IC50 [4] was 16.7 µg/mL, the IC80 neutralization [5] was 34.3 µg/mL and the IC80 neutralization [6] was 33.3 µg/mL. For the same substance, the neutralization IC50 [7] was 0.404 µg/mL, the neutralization IC50 [8] was 35.8 µg/mL and the IC50 (µg/ml), TZM-bl cell neutralization assay, pseudovirus [9] was > 50 µg/mL. The neutralization IC50 [10] was 0.008 µg/mL, the neutralization IC50 [11] was 12.7 µg/mL and the IC80 neutralization [12] was 23.9 µg/mL. The neutralization IC50 [13] was 2.59 µg/mL, the IC80 neutralization [14] was > 50 µg/mL and the IC80 neutralization [15] was > 50 µg/mL. For the same substance, the IC50 (µg/ml), TZM-bl cell neutralization assay, pseudovirus [16] was 13.9 µg/mL, the neutralization IC50 [17] was 1.38 µg/mL and the neutralization IC50 [18] was 1.91 µg/mL. For the same substance, the IC80 (µg/ml), TZM-bl pseudovirus neutralization [19] was > 50 µg/mL, the IC80 neutralization [20] was 0.263 µg/mL and the IC80 neutralization [21] was > 50 µg/mL. The IC80 neutralization [22] was 39.6 µg/mL, the neutralization IC50 [23] was 5.16 µg/mL and the neutralization IC50 [24] was 2.02 µg/mL. It also gave a neutralization IC50 [25] of 4.87 µg/mL, a neutralization IC50 [26] of 43 µg/mL and an IC80 (µg/ml), TZM-bl pseudovirus neutralization [27] of 5.55 µg/mL. The neutralization IC50 [28] was 29.6 µg/mL, the IC50 (µg/ml), TZM-bl cell neutralization assay, pseudovirus [29] was 15.5 µg/mL and the IC80 (µg/ml), TZM-bl pseudovirus neutralization [30] was 3.5 µg/mL. The IC80 neutralization [31] was > 50 µg/mL, the IC80 neutralization [32] was > 50 µg/mL and the neutralization IC50 [33] was 0.424 µg/mL. The neutralization IC50 [34] was 1.73 µg/mL, the neutralization IC50 [35] was > 50 µg/mL and the IC80 neutralization [36] was > 50 µg/mL. The neutralization IC50 [37] was > 50 µg/mL, the IC80 neutralization [38] was > 50 µg/mL and the neutralization IC50 [39] was 12.9 µg/mL. The IC80 neutralization [40] was 23.6 µg/mL, the neutralization IC50 [41] was 19.9 µg/mL and the neutralization IC50 [42] was 13.2 µg/mL. For the same substance, the neutralization IC50 [43] was 28.7 µg/mL, the neutralization IC50 [44] was 0.623 µg/mL and the IC80 neutralization [45] was > 50 µg/mL.
In the case of VRC01 (antibody), the IC80 neutralization [1] is reported as > 50 µg/mL, the IC80 neutralization [2] is reported as 0.449 µg/mL and the IC80 neutralization [3] is reported as 0.573 µg/mL. The neutralization IC50 [4] was 0.056 µg/mL, the IC80 neutralization [5] was 1.12 µg/mL and the IC80 neutralization [6] was 0.202 µg/mL. For the same substance, the neutralization IC50 [7] was 0.07 µg/mL, the neutralization IC50 [8] was 0.604 µg/mL and the IC50 (µg/ml), TZM-bl cell neutralization assay, pseudovirus [9] was 0.183 µg/mL. It also gave a neutralization IC50 [10] of 0.0002 µg/mL, a neutralization IC50 [11] of 0.05 µg/mL and an IC80 neutralization [12] of 0.166 µg/mL. The neutralization IC50 [13] was 0.06 µg/mL, the IC80 neutralization [14] was > 50 µg/mL and the IC80 neutralization [15] was 0.413 µg/mL. The IC50 (µg/ml), TZM-bl cell neutralization assay, pseudovirus [16] was 0.051 µg/mL, the neutralization IC50 [17] was 0.249 µg/mL and the neutralization IC50 [18] was 0.17 µg/mL. For the same substance, the IC80 (µg/ml), TZM-bl pseudovirus neutralization [19] was 0.743 µg/mL, the IC80 neutralization [20] was 0.254 µg/mL and the IC80 neutralization [21] was 2.62 µg/mL. For the same substance, the IC80 neutralization [22] was 0.306 µg/mL, the neutralization IC50 [23] was 0.141 µg/mL and the neutralization IC50 [24] was 0.124 µg/mL. For the same substance, the neutralization IC50 [25] was 0.488 µg/mL, the neutralization IC50 [26] was 2.02 µg/mL and the IC80 (µg/ml), TZM-bl pseudovirus neutralization [27] was 0.8 µg/mL. It also gave a neutralization IC50 [28] of 1.61 µg/mL, an IC50 (µg/ml), TZM-bl cell neutralization assay, pseudovirus [29] of 0.338 µg/mL and an IC80 (µg/ml), TZM-bl pseudovirus neutralization [30] of 0.284 µg/mL. The IC80 neutralization [31] was 0.776 µg/mL, the IC80 neutralization [32] was 0.11 µg/mL and the neutralization IC50 [33] was 0.968 µg/mL. The neutralization IC50 [34] was 1.4 µg/mL, the neutralization IC50 [35] was 0.01 µg/mL and the IC80 neutralization [36] was 0.037 µg/mL. For the same substance, the neutralization IC50 [37] was > 50 µg/mL, the IC80 neutralization [38] was > 50 µg/mL and the neutralization IC50 [39] was 0.103 µg/mL. The IC80 neutralization [40] was 5.69 µg/mL, the neutralization IC50 [41] was 10.7 µg/mL and the neutralization IC50 [42] was 12.8 µg/mL. It also gave a neutralization IC50 [43] of 0.612 µg/mL, a neutralization IC50 [44] of 0.059 µg/mL and an IC80 neutralization [45] of 0.213 µg/mL.
